Laboratory results from publication PMC4776146, “Distinct phosphorylation sites on the ghrelin receptor, GHSR1a, establish a code that determines the functions of ß-arrestins” (Scientific Reports, 2016).

Assays:
Assay in all cases: FRET or BRET; BRET in living HEK 293 cells; eYFP-tagged receptor and Rluc-ß-arrestin co-transfected at a ratio of 4:1; Hanks' balanced salt solution; coelenterazine 2.5 uM for 10 min at 37 °C, then ghrelin for 5 min; concentration response curves for ghrelin; emissions at 535 and 475 nm
[1] = molecular target: GHSR1a-TM (triple mutant of Ser362, Ser363 and Thr366 to Ala) fused at its C terminus to eYFP (UniProt Q92847)
GHSR1a-TM (triple mutant of Ser362, Ser363 and Thr366 to Ala) fused at its C terminus to eYFP, sequence (Q92847 other isoform, or with tags, fused parts or gaps, change not shown): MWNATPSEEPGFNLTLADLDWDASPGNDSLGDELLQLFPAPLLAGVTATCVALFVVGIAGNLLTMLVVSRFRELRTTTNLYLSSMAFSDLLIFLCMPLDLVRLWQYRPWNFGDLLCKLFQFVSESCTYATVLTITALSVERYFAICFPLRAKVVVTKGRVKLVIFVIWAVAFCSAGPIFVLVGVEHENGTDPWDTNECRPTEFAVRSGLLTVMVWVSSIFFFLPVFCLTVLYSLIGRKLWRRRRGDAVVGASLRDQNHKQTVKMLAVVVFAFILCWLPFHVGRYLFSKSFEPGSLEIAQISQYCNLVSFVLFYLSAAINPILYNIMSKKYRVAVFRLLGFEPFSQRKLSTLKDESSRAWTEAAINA

[2] = molecular target: GHSR1a-Total (Ser349, Thr350, Ser362, Ser363 and Thr366 substituted by Ala) fused at its C terminus to eYFP (UniProt Q92847)
GHSR1a-Total (Ser349, Thr350, Ser362, Ser363 and Thr366 substituted by Ala) fused at its C terminus to eYFP, sequence (Q92847 other isoform, or with tags, fused parts or gaps): as the sequence (Q92847 other isoform, or with tags, fused parts or gaps, change not shown) above, with S349A, T350A counted along it

[3] = molecular target: T1, GHSR1a-WT fused at its C terminus to enhanced yellow fluorescent protein (eYFP) (UniProt Q92847 1-366); conditions: partners not purified
T1 construct: amplified by PCR with primers that removed the stop codon, subcloned upstream of full-length eYFP in pcDNA3.1; Phosphorylated in cells after ghrelin at Ser349, Thr350, Ser362, Ser363 and Thr366 (mass spectrometry on the EGFP-tagged receptor); also called YFP-GHSR1a-WT; YFP tagged-GHSR1a-WT; source: HEK 293, transiently co-transfected (Lipofectamine 2000), in living cells; not shown: eYFP, …
T1 sequence (Q92847 whole entry, the tested form may be a part): as the sequence (Q92847 other isoform, or with tags, fused parts or gaps, change not shown) above, with A362S, A363S, A366T counted along it

[4] = molecular target: T2, GHSR1a-DM (double mutant Thr350Ala, Ser349Ala) fused at its C terminus to eYFP (UniProt Q92847 1-366, Thr350Ala | Ser349Ala); conditions: partners not purified
T2 construct: also called YFP-GHSR1a-DM; source: HEK 293, transiently co-transfected (Lipofectamine 2000), in living cells; not shown: eYFP, C-terminal, kept
T2 sequence (Q92847 whole entry S349A/T350A, the tested form may be a part): as the sequence (Q92847 other isoform, or with tags, fused parts or gaps, change not shown) above, with S349A, T350A, A362S, A363S, A366T counted along it

“ß-arrestin 2 tagged with Rluc at its C-terminus (from UniProt P32121 1-409) (natural protein)” showed an efficacy of recruitment, percent of GHSR1a-WT response (BRET) (% of GHSR1a-WT response) [1] of 24.6, a pEC50 of ghrelin for ß-arrestin 2 recruitment (BRET) [1] of 6.97 and an efficacy of recruitment, percent of GHSR1a-WT response (BRET) (% of GHSR1a-WT response) [2] of 18. The pEC50 of ghrelin for ß-arrestin 2 recruitment (BRET) [2] was 6.04.

B1: Renilla luciferase-tagged ß-arrestin 1 (natural protein, UniProt P49407 1-418, looked up)
chain: MGDKGTRVFKKASPNGKLTVYLGKRDFVDHIDLVDPVDGVVLVDPEYLKERRVYVTLTCAFRYGREDLDVLGLTFRKDLFVANVQSFPPAPEDKKPLTRLQERLIKKLGEHAYPFTFEIPPNLPCSVTLQPGPEDTGKACGVDYEVKAFCAENLEEKIHKRNSVRLVIRKVQYAPERPGPQPTAETTRQFLMSDKPLHLEASLDKEIYYHGEPISVNVHVTNNTNKTVKKIKISVRQYADICLFNTAQYKCPVAMEEADDTVAPSSTFCKVYTLTPFLANNREKRGLALDGKLKHEDTNLASSTLLREGANREILGIIVSYKVKVKLVVSRGGLLGDLASSDVAVELPFTLMHPKPKEEPPHREVPENETPVDTNLIELDTNDDDIVFEDFARQRLKGMKDDKEEEEDGTGSPQLNNR
notes: plasmid provided by Prof; Mark Scott (Institut Cochin, Paris); also called Rluc-ß-arrestin 1; source: HEK 293, transiently co-transfected (Lipofectamine 2000), in living cells
For B1, the efficacy of recruitment, percent of GHSR1a-WT response (BRET) (% of GHSR1a-WT response) [1] was 36.8, the pEC50 of ghrelin for ß-arrestin 1 recruitment (BRET) [1] was 7.13 and the efficacy of recruitment, percent of GHSR1a-WT response (BRET) (% of GHSR1a-WT response) [2] was 31.8. The pEC50 of ghrelin for ß-arrestin 1 recruitment (BRET) [2] was 6.01, the “pEC50 of ghrelin for ß-arrestin 1 recruitment (BRET)” value [3] was 7.54 and the “pEC50 of ghrelin for ß-arrestin 1 recruitment (BRET)” value [4] was 7.1.
